Measured values reported in patent US20250051473A1 (IGM BIOSCIENCES, published 2025).

B1: IgM F-1 (bispecific antibody)
VH: EVQLQQSGAEFVRPGASVKLSCTASGFNIKDSLMHWVKQRPEQGLEWIGWIDPEDDKTKYAPKFQDEATLTADTSSNTAYLHLSSLTSEDTAIYYCARRFLRGFAYWGQGTLVTVSA
VL: DIVMTQSPSSLSVSAGEKVTMSCKSSQSLLNSGNQKNYLAWYQQKPGQPPKLLIYGASTRESGVPDRFTGSGSGTDFTLTISSVQAEDLAVYYCQNDHSYPYTFGGGTKLEIK
chain: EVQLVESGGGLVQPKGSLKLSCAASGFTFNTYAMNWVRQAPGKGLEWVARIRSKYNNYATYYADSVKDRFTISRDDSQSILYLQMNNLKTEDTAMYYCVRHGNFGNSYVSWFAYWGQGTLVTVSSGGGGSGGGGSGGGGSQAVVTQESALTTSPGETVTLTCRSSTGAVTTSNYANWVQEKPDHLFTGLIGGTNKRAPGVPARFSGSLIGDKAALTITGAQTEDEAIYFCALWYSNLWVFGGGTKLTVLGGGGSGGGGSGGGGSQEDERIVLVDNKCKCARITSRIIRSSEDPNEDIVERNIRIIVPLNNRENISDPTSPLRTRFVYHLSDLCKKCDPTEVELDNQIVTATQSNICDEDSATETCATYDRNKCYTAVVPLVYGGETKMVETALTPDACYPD
notes: Constant regions not specified; also called chimeric CD38 × CD3 IgM antibody of Clone F
B2: IgM B-2 (bispecific antibody)
VH: QVQLVQSGAEVKKPGSSVKVSCKASGYTFTSYNMHWVRQAPGQGLEWMGYIYPGNGGTNYNQKFKGRVTITADESTSTAYMELSSLRSEDTAVYYCARGASMITTGAWFAYWGQGTLVTVSS
VL: DIQMTQSPSSVSASVGDRVTITCRASESLDTYGNSFMYWYQQKPGKAPKLLIYLASSLESGVPSRFSGSGSGTDFTLTISSLQPEDFATYYCHQNHEDPWTFGQGTKVEIK
chain: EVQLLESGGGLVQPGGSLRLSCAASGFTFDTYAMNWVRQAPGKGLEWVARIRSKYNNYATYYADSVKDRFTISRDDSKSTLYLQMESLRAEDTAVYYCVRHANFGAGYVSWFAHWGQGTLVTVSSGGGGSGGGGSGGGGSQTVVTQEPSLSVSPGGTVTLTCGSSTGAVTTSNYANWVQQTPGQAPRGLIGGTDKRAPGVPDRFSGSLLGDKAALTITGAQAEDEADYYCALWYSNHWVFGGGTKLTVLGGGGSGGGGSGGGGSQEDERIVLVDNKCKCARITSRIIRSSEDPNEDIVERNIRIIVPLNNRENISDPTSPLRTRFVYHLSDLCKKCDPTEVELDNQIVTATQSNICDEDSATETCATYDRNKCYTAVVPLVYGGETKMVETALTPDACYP
notes: IgM and light chain constant regions not specified; also called humanized CD38 × CD3 IgM antibody
B3: IgM B-4 (bispecific antibody)
VH: B2 VH
VL: B2 VL
chain: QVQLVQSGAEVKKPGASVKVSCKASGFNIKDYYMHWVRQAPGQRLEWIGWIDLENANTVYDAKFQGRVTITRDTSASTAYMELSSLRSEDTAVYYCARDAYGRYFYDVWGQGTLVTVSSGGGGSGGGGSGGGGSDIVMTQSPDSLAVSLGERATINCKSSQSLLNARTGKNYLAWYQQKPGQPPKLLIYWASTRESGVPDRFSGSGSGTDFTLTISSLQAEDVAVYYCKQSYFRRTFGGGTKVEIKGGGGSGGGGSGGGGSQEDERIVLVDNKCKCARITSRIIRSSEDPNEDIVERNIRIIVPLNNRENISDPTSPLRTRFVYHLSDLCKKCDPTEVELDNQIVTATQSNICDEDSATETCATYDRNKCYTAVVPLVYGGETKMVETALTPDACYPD
notes: Constant regions not specified; also called humanized CD38 × CD3 IgM antibody
B4: IgM H-1 (bispecific antibody)
VH: QVPLHQSGPELIKPGASLKISCKASDSAFNNSWMNWVRQRPGKGLEWIGWIYPGDDDTKYNGKFMGKATLTADKSSGTAYMQLSSLTSEDSAVYFCARGRWGMDYWGQGTSVTVSS
VL: DIVMTQFHNFMSTSVGDRVNINCKASQNVVTAVAWYQQKPGQSPKLLIYWASTRHTGVPDRFTGSGSGTDFTLTISNVQSEDLADYFCQQYSNYPFTFGSGTKLEIK
chain: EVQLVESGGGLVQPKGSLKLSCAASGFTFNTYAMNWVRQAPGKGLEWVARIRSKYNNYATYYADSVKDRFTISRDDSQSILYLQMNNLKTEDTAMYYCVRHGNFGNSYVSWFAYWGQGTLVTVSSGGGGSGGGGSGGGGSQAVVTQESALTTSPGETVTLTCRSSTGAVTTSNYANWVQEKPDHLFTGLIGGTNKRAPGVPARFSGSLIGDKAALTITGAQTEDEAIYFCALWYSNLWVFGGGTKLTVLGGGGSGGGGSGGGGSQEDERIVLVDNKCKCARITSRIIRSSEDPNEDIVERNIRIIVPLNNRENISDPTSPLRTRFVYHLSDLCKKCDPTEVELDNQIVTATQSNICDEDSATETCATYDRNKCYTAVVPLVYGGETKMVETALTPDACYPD
notes: Constant regions not specified; also called chimeric CD38 × CD3 IgM antibody of Clone H
B5: IgM A-1 (bispecific antibody)
VH: QVQLQQSGAELVKPGASVKISCKASGYTFSNYWIEWVKQRPGLGLEWIGDILPGSGTTNYNEKFKGKATFTADTSSNTAYMQLSSLTSEDSAVYYCAGYGNYLWFTYWGQGTLVTVSA
VL: DIQMNQSPSSLSASLGDTITITCHASQNINVWLSWYQQKPGNIPKLLIYKASNLHTGVPSRFSGSGSGTGFTLTISSLQPEDIATYYCQQGQSYPYTFGGGTKLEIK
chain: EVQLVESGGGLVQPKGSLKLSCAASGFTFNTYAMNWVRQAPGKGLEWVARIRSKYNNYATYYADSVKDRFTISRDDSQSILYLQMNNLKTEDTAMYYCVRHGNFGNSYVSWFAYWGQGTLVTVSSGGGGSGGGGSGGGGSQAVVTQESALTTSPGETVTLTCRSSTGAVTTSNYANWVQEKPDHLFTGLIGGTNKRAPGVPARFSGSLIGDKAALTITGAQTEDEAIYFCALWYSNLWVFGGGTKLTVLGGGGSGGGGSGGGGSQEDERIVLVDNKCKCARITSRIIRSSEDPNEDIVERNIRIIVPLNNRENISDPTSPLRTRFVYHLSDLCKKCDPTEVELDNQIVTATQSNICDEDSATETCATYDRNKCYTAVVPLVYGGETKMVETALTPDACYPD
notes: The IgM heavy chain constant region and the light chain constant region used are not specified; also called chimeric CD38 × CD3 IgM antibody of Clone A
B6: IgM OKT10-2 (bispecific antibody)
VH: EVQLLESGGGLVQPGGSLRLSCAASGFDFSRSWMNWVRQAPGKGLEWVSEINPDSSTINYATSLKDRFTISRDNSKNTLYLQMNSLRAEDTAVYYCARYGNWFPYWGQGTLVTVSS
VL: DIQMTQSPSSLSASVGDRVTITCKASQNVDTNVAWYQQKPGKAPKALIYSASYRYSGVPSRFSGSGSGTDFTLTISSLQPEDFATYYCQQYDSYPLTFGQGTKVEIK
chain: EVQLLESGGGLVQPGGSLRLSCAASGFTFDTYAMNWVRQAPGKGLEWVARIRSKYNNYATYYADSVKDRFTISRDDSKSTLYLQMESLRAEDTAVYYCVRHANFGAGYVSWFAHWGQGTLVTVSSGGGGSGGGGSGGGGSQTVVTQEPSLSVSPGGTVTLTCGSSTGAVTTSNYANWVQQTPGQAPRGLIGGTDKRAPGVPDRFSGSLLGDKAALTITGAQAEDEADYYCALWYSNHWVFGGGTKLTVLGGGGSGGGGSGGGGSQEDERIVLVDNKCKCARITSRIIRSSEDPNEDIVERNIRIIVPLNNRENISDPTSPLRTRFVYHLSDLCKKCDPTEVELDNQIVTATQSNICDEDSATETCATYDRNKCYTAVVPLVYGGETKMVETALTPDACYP
notes: as for B3
B7: IgM OKT10-4 (bispecific antibody)
VH: B6 VH
VL: B6 VL
chain: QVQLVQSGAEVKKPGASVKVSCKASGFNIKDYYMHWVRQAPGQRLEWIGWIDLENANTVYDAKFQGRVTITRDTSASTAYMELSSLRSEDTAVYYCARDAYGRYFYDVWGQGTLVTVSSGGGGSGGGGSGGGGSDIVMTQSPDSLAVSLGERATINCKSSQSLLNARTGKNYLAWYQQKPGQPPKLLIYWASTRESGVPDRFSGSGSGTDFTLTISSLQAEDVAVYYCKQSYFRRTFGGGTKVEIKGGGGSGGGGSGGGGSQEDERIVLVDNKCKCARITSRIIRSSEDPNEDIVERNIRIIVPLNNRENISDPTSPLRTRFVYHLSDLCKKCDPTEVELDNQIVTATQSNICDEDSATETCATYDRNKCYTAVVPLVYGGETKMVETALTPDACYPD
notes: as for B3
B8: IgM E-2 (bispecific antibody)
VH: QVQLVQSGAEVKKPGSSVKVSCKASGYTFTNHWIEWVRQAPGQGLEWMGDIFPGGGYTDYNEKFKGRVTITADESTSTAYMELSSLRSEDTAVYYCARGRDLAMDYWGQGTLVTVSS
VL: DIQMTQSPSSLSASVGDRVTITCHASQNINVWLGWYQQKPGKAPKLLIYKASNLHTGVPSRFSGSGSGTDFTLTISSLQPEDFATYYCQQGQSYPYTFGQGTKVEIK
chain: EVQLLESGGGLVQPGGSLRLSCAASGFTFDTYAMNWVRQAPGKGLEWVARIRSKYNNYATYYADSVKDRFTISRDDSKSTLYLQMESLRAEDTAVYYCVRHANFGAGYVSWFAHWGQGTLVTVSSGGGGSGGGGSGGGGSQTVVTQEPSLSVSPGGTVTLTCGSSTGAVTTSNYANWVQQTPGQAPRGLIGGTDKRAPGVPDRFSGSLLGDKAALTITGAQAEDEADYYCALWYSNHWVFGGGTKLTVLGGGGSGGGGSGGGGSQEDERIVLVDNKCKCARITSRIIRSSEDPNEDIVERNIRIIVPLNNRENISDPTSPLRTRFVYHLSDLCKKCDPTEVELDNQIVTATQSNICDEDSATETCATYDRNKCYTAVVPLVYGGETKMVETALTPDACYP
notes: as for B3
B9: IgM E-4 (bispecific antibody)
VH: B8 VH
VL: B8 VL
chain: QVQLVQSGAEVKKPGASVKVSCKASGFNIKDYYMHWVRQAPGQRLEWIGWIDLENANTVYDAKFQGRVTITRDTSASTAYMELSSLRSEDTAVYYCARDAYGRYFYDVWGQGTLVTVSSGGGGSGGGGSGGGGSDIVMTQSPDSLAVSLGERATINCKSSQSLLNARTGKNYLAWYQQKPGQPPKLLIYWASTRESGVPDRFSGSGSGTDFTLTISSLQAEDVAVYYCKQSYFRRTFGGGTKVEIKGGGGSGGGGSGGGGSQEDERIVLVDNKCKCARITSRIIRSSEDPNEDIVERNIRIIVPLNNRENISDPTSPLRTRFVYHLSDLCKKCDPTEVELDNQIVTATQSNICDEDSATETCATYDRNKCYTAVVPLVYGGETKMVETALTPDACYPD
notes: as for B3

Columns and labels:
[1] = target: T1, recombinant cynomolgus monkey CD38 extracellular domain protein (ACROBiosystems) (cynomolgus monkey, UniProt Q5VAN0 44-301); experiment: ELISA, plate coated with recombinant cynomolgus CD38 extracellular domain, HRP anti-human kappa detection, chemiluminescence (RLU)
T1 construct: Bought extracellular domain protein; also called cyno CD38; recombinant cyno CD38

[2] = target: cell surface human CD38 on NCI-H929 myeloma cells (human, UniProt P28907 1-300); experiment: flow cytometry on NCI-H929 cells, AF488 anti-human kappa secondary antibody, median FL-1
[3] = target: T2, recombinant human CD38 extracellular domain protein (ACROBiosystems, Cat #CD8-H5224) (human, UniProt P28907 43-300); experiment: ELISA, plate coated with recombinant human CD38 extracellular domain, HRP anti-human kappa detection, chemiluminescence (RLU)
T2 construct: Bought protein; also called recombinant human CD38 protein

[4] = target: T2, recombinant human CD38 extracellular …; experiment: ELISA, plate coated with 1 ug/mL recombinant human CD38, HRP anti-human kappa detection, chemiluminescence (RLU)
[5] = target: T3, human CD157 protein (SinoBiological, 10060-H08H) (human, UniProt Q10588 33-292); experiment: ELISA, antigen coated at 1 µg/mL, serial dilutions of IgM
T3 construct: Bought recombinant protein, coated on the ELISA plate
T3 sequence (looked up): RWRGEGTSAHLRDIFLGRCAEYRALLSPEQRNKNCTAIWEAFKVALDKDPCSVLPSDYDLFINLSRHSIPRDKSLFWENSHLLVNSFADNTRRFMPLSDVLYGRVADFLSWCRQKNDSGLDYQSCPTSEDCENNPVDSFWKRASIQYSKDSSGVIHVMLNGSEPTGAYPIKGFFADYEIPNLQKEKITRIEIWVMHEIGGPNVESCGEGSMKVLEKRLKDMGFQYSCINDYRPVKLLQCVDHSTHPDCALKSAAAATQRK

[6] = target: T4, mouse CD38 (ACROBiosystems, CD8-M5223) (mouse, UniProt P56528 45-304); experiment: as above
T4 construct: Bought recombinant protein, coated on the ELISA plate
T4 sequence (looked up): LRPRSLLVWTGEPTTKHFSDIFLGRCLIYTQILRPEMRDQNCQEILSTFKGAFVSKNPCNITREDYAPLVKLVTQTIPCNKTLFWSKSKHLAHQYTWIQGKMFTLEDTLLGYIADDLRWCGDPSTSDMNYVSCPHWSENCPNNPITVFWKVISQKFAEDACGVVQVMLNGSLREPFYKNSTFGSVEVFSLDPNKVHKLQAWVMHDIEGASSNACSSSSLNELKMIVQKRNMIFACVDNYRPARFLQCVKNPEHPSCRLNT

Row | Binder | binding result [4] | binding result [5] | binding result [6] | also measured
1 | B1 | – | – | – | binding result [1]: binds; binding result [2]: binds; binding result [3]: binds
2 | B2 | binds | no binding | no binding | –
3 | B3 | binds | no binding | no binding | –
4 | B4 | – | – | – | binding result [1]: binds; binding result [2]: binds; binding result [3]: binds
5 | B5 | – | – | – | EC50 (read off the curve) [1]: ~0.2 µg/mL; EC50 (read off the curve) [2]: ~2 nM; EC50 (read off the curve) [3]: ~0.2 µg/mL
6 | B6 | – | no binding | no binding | EC50 (read off the curve) [4]: ~0.3 µg/mL
7 | B7 | binds | no binding | no binding | –
8 | B8 | binds | no binding | no binding | –
9 | B9 | binds | no binding | no binding | –
